# Where no end group is shown, it is not given here.
# T1: PAH2 domain of mSin3A (Mus musculus, UniProt Q60520)
# T1 construct: expressed in transfected cells; host or cells: S. cerevisiae strain L40
# T1 sequence (Q60520 251-404): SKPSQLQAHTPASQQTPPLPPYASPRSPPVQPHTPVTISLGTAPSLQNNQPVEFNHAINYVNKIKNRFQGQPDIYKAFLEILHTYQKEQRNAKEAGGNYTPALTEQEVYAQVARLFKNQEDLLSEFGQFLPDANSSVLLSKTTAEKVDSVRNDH
# B1: SID 1-57: LexA DNA binding domain fused to amino acids 1-57 of Mad1 (protein)
# chain: MKALTARQQEVFDLIRDHISQTGMPPTRAEIAQRLGFRSPNAAEEHLKALARKGVIEIVSGASRGIRLLQEEEEGLPLVGRVAAGEPLLAQQHIEGHYQVDPSLFKPNADFLLRVSGMSMKDIGIMDGDLLAVHKTQDVRNGQVVVARIDDEVTVKRLKKQGNKVELLPENSEFKPIVVDLRQQSFTIEGLAVGVIRNGDWLMAAAVRMNIQMLLEAADYLERREREAEHGYASMLPYNNKDRDALKRRNKSKKNNSSS
# B2: NIQMLLEAADYLE (protein)
# chain: MKALTARQQEVFDLIRDHISQTGMPPTRAEIAQRLGFRSPNAAEEHLKALARKGVIEIVSGASRGIRLLQEEEEGLPLVGRVAAGEPLLAQQHIEGHYQVDPSLFKPNADFLLRVSGMSMKDIGIMDGDLLAVHKTQDVRNGQVVVARIDDEVTVKRLKKQGNKVELLPENSEFKPIVVDLRQQSFTIEGLAVGVIRNGDWLNIQMLLEAADYLE
# How the values were obtained:
# [1] = target: VP16PAH2 (amino acids 251-404 of mSin3A encoding the PAH2 domain fused to the VP16 activation domain) (UniProt Q60520); assay: directed yeast two-hybrid assay (LexA-SID with VP16PAH2, beta-galactosidase)
# [2] = Circular dichroism (CD) spectroscopy of SID peptides in TFE; assay type: physicochemical; conditions: for ability to adopt α-helical structure in TFE: increasing TFE concentrations (1, 20, 50%); for α-helical content: 50 μM peptide, 25° C.
# Procedure: Circular Dichroism (CD) Spectroscopy—CD samples contained 50 μM of peptide, 1×phosphate-buffered saline, and the percentage of trifluoroethanol (TFE, Sigma) indicated in FIG. 4. CD spectra were collected on an Aviv 62DS spectrophotometer from 280 to 195 nm at 25° C. using a cell with a 0.1-cm pathlength. The reported spectra are the average of 15 consecutive runs. The observed ellipticity was converted to mean residue molar ellipticity [Θ] (deg cm^2 dmol^−1) using the relationship [Θ]=Θ/(Cr 1) where Θ is the observed ellipticity, 1 is the pathlength, and Cr is the mean residue molar concentration. Fractional helicities were calculated as described using values for [Θ]^0222 and [Θ]^100222, corresponding to 0% and 100% helical content at 222 nm, of −2000 and −28,400 deg cm^2 dmol^−1, respectively. Wu et al., Biochemistry 20:5766-570 (1981).
# To test directly if the SID could adopt an α-helical structure, we measured the helical content of wild-type SID and mutant SID peptides using circular dichroism (CD) spectroscopy. […] Therefore, spectra for the wild-type and mutant SID peptides were measured in the solvent TFE, which is commonly used to stabilize α-helical conformation in peptides that have an inherent helical propensity. Sonnichsen et al., Biochemistry 31 :8790-8798 (1992), Jasanoff and Fersht, Biochemistry 33:2129-2135 (1994). […] At increasing TFE concentrations, the wild-type peptide adopts an α-helical structure as indicated by the strong negative peaks at 208 and 222 nm. In 20% TFE the SID is approximately 40% α-helical. This percentage increases to approximately 60% in 50% TFE.
# PAH2 domain of mSin3A = target: T1, PAH2 domain of mSin3A; assay: Directed two-hybrid assay (LexA-SID fusions with VP16PAH2, quantitative β-galactosidase); assay type: cell-based; conditions: for interaction with PAH2 (relative β-galactosidase activity): LexA fusion with VP16PAH2 in S. cerevisiae strain L40; for affinity for PAH2 relative to wild-type SID 8-20: fold higher
# Excerpt: Cloning and Interaction Assays—Fusions to the LexA DNA binding domain were made either by polymerase chain reaction amplifying SID 1-57 and SID 1-27 using pSPMad1 or pSPMad1 (L12P/A16P) (Ayer et al., Cell 80:767-776 (1995)) as template or by inserting a double-stranded oligonucleotide cassette encoding the various SID constructs between the EcoRI and BamH1 sites of pBTM116. Hollenberg et al., Mol. Cell. Biol. 15:3813-3822 (1995). Each construct was verified by sequencing. The different LexA fusion constructs and VP16PAH2 (Ayer et al., Cell 80:767-776 (1995)) were introduced into the S. cerevisiae strain L40 by lithium acetate transformation. Ausubel et al. eds., Current Protocols in Molecular Biology, John Wiley & Sons, Inc., New York (1995). Quantitative β-galactosidase assays were performed from three independent colonies in triplicate from liquid cultures. Ausubel et al. eds., Current Protocols in Molecular Biology, John Wiley & Sons, Inc., New York (1995). For each measurement the standard deviation was less than 10%.
# We have used a directed two-hybrid assay to measure the relative affinity of the SID and various SID mutants for PAH2. Briefly, SID molecules based on the sequence of human Mad1 were fused to the DNA binding domain of bacterial LexA, and the PAH2 domain of mSin3A was fused to the transcriptional activation domain of VP16. Following introduction into the S. cerevisiae strain L40, relative affinity was measured by quantitative analysis of the β-galactosidase activity generated from an integrated LexA-dependent LacZ reporter gene.
molecule,measurement,setting,value
LexA fused to SID 8-20 Q10A (from UniProt P0A7C2 1-202),fold higher affinity than wild-type SID 8-20 (relative beta-galactosidase activity),[1],2 fold
"GGGMNIQMLLEAADYDE [L19D SID, same mutation also tested as LexA-SID 8-20 fusion]",CD spectrum / helicity compared with wild-type SID,[2]; 50% TFE,nearly identical to that collected for the wild-type SID
same,reduction of helicity relative to wild-type,[2]; 50% TFE,~5%
same,ability to adopt α-helical structure in TFE,[2],retain helical structure
same,ability to adopt α-helical structure in TFE,[2]; listed as L19D,retains helical structure
same,interaction with PAH2 (relative β-galactosidase activity),PAH2 domain of mSin3A,unable to interact with PAH2
same,interaction with PAH2 (relative β-galactosidase activity),PAH2 domain of mSin3A; listed as L19D,fails to interact with PAH2
same,interaction with PAH2 (relative β-galactosidase activity),PAH2 domain of mSin3A; listed as Leu-19,severely impaired binding
"Q10A: minimal SID 8-20 with single mutation Q10A, LexA fusion (NIAMLLEAADYLE; also: LexA fusion; UniProt Q05195 8-20, looked up, variant Q10A)",affinity for PAH2 relative to wild-type SID 8-20,PAH2 domain of mSin3A; yeast strain L40,approximately 2 fold
"QLOR: minimal thirteen amino acid SID (8-20) with mutation at Gln-10, LexA fusion (NIRMLLEAADYLE; also: LexA fusion; UniProt Q05195 8-20, looked up, variant Q10R)",reduction of binding to PAH2 relative to wild-type SID 8-20,"PAH2 domain of mSin3A; yeast strain L40, fold reduced",4 fold
LexA fused to SID 8-20 Q10A/E14A/D17A (from UniProt P0A7C2 1-202),fold better binding than wild-type SID,[1],2 fold
LexA fused to SID 8-20 Q10R (from UniProt P0A7C2 1-202),fold reduction of binding against wild-type SID 8-20 (relative beta-galactosidase activity),[1],4 fold
GGGMNIQMLLEAADYLE [wild-type SID peptide],α-helical content,[2]; 20% TFE,approximately 40%
same,α-helical content,[2]; 50% TFE,approximately 60%
same,secondary structure,[2]; aqueous solution containing 1% TFE,lacks secondary structure
same,ability to adopt α-helical structure in TFE,[2],able to adopt an α-helical conformation
"Q10A/E14A/D17A: minimal SID 8-20 containing all three alanine mutations, LexA fusion (NIAMLLAAAAYLE; also: LexA fusion; UniProt Q05195 8-20, looked up, variant Q10A E14A D17A)",affinity for PAH2 relative to wild-type SID 8-20,PAH2 domain of mSin3A; yeast strain L40,two-fold
"GGGMNIQMPLEAPDYLE [L12P/A16P SID, same mutation also tested as LexA fusion in two-hybrid]",ability to adopt α-helical structure in TFE,[2],cannot adopt an α-helical structure
same,ability to adopt α-helical structure in TFE,[2]; listed as L12P/A16P,remained unchanged with increasing concentrations of TFE
same,ability to adopt α-helical structure in TFE,[2]; listed as double proline mutant SID peptide,incapable of α-helix formation
same,interaction with PAH2 (relative β-galactosidase activity),PAH2 domain of mSin3A,fails to interact with PAH2
same,interaction with PAH2 (relative β-galactosidase activity),PAH2 domain of mSin3A; listed as L12P/A16P,failed to interact with PAH2
"E14A: minimal SID 8-20 with single mutation E14A, LexA fusion (NIQMLLAAADYLE; also: LexA fusion; UniProt Q05195 8-20, looked up, variant E14A)",affinity for PAH2 relative to wild-type SID 8-20,PAH2 domain of mSin3A; yeast strain L40,approximately 2 fold
LexA fused to SID 8-20 E14A (from UniProt P0A7C2 1-202),fold higher affinity than wild-type SID 8-20 (relative beta-galactosidase activity),[1],2 fold
LexA fused to SID 8-20 D17A (from UniProt P0A7C2 1-202),fold higher affinity than wild-type SID 8-20 (relative beta-galactosidase activity),[1],2 fold
"Tyr-18: minimal SID 8-20 with Tyr-18 mutated to aspartic acid, LexA fusion (NIQMLLEAADDLE; also: LexA fusion; UniProt Q05195 8-20, looked up, variant Y18D)",interaction with PAH2 (relative β-galactosidase activity),PAH2 domain of mSin3A,severely impaired binding
"GGGMNIQMLLEDADYLE [A15D SID, same mutation also tested as LexA-SID 8-20 fusion]",CD spectrum / helicity compared with wild-type SID,[2]; 50% TFE,slightly less helical than the wild-type SID
same,reduction of helicity relative to wild-type,[2]; 50% TFE,approximately 40%
same,ability to adopt α-helical structure in TFE,[2],retain helical structure
same,ability to adopt α-helical structure in TFE,[2]; listed as A15E,retains helical structure
same,interaction with PAH2 (relative β-galactosidase activity),PAH2 domain of mSin3A,unable to interact with PAH2
same,interaction with PAH2 (relative β-galactosidase activity),PAH2 domain of mSin3A; listed as A15E,fails to interact with PAH2
same,interaction with PAH2 (relative β-galactosidase activity),PAH2 domain of mSin3A; listed as Ala-15,severely impaired binding
"D17A: minimal SID 8-20 with single mutation D17A, LexA fusion (NIQMLLEAAAYLE; also: LexA fusion; UniProt Q05195 8-20, looked up, variant D17A)",affinity for PAH2 relative to wild-type SID 8-20,PAH2 domain of mSin3A; yeast strain L40,approximately 2 fold
B1,interaction with PAH2 (relative β-galactosidase activity),PAH2 domain of mSin3A,sufficient for interaction
B2,interaction with PAH2 (relative β-galactosidase activity),PAH2 domain of mSin3A,necessary and sufficient for interaction

# Reference: patent publication US6528620B1, “Sid-polyamide fusions: a potent method of regulating gene expression” (University of Utah Research Foundation, priority 1999, dated 2003)
